Reference: patent US7851591 (Dana-Farber, dated 2010)

B1: hTERT peptide E555 (ELLRSFFYV) (peptide)
peptide: ELLRSFFYV
notes: Only the start position aa555 is printed; the end of the range follows from the length of the nonapeptide
B2: hTERT peptide I540 (ILAKFLHWL) (peptide)
peptide: ILAKFLHWL
notes: Only the start position aa540 is printed; the end of the range follows from the length of the nonapeptide; also called hTERT I540
B3: hTERT peptide R865 (RLVDDFLLV) (peptide)
peptide: RLVDDFLLV
notes: Only the start position aa865 is printed; the end of the range follows from the length of the nonapeptide

Target: T1, human HLA-A*0201 (human)
T1 construct: In the T2 assay the MHC stands on the cell surface; also called HLA-A2
Assay: T2 cell assay, 50 µg/ml peptide plus 5 µg/ml b2m for 18 h, flow cytometry with mAb BB7.2; (MFI with peptide - MFI without)/MFI without

Row | Binder | Fluorescence Index
1 | AHTKDGFNF (Only the start position aa98 is printed) [A98-Id idiotype peptide (AHTKDGFNF), negative control] | 0
2 | HFLLWKLIA [I540-S, scrambled hTERT I540 peptide (HFLLWKLIA), negative control] | 0.2
3 | B1 | 2.2
4 | B2 | 3.1
5 | B3 | 2.2

Target: T1, human HLA-A*0201
Assay: T2 cell assay: peptide plus beta2-microglobulin pulsed 18 h, HLA-A*0201 surface expression by flow cytometry with mAb BB7.2

Row | Binder | binding result
6 | AHTKDGFNF (Only the start position aa98 is printed) [A98-Id idiotype peptide (AHTKDGFNF), negative control] | no binding (tested: 50 µg/ml)
7 | HFLLWKLIA [I540-S, scrambled hTERT I540 peptide (HFLLWKLIA), negative control] | no binding (tested: 50 µg/ml)
